The record followed here is US20240425848A1.

This test deals with histone H3 trimethylated at lysine 9 (H3K9me3) in chromatin of NIH-3T3 cells (UniProt P68433).

Substance TnH #3: 112aaCD (HP1α)-3×(TGS)-Tn5 came in with a score: coefficient of the linear model for the difference between TnH and Tn5 enrichment (scGET-seq, NIH-3T3), region chrUn JH584304:0-114452, cell group 0 (G1/S) of 0.198.

On to “TnH #3: 112aaCD (HP1α)-3×(TGS)-Tn5 (enzyme)”, for which the score: coefficient of the linear model for the difference between TnH and Tn5 enrichment (scGET-seq, NIH-3T3), region chrUn JH584304:0-114452, cell group 1 (G2/M) was -0.133; the score: coefficient of the linear model for the difference between TnH and Tn5 enrichment (scGET-seq, NIH-3T3), region chrUn JH584304:0-114452, cell group 2 (G2/M) was -0.105; the score: coefficient of the linear model for the difference between TnH and Tn5 enrichment (scGET-seq, NIH-3T3), region chrUn JH584304:0-114452, cell group 3 (G1/S) was 0.329; the score: coefficient of the linear model for the difference between TnH and Tn5 enrichment (scGET-seq, NIH-3T3), region chrUn JH584304:0-114452, cell group 4 (G1/S) was found to be 0.067. The score: coefficient of the linear model for the difference between TnH and Tn5 enrichment (scGET-seq, NIH-3T3), region chrUn JH584304:0-114452, cell group 5 (G2/M) was -0.146; the score: coefficient of the linear model for the difference between TnH and Tn5 enrichment (scGET-seq, NIH-3T3), region chrUn JH584304:0-114452, cell group 6 (G1/S) was 0.138; the score: coefficient of the linear model for the difference between TnH and Tn5 enrichment (scGET-seq, NIH-3T3), region chrUn JH584304:0-114452, cell group 7 (G2/M) is -0.189; the score: coefficient of the linear model for the difference between TnH and Tn5 enrichment (scGET-seq, NIH-3T3), region chrUn JH584304:0-114452, cell group 8 (G2/M) is -0.287. The score: coefficient of the linear model for the difference between TnH and Tn5 enrichment (scGET-seq, NIH-3T3), region chrUn JH584304:0-114452, cell group 9 (G1/S) was -0.523; the score: coefficient of the linear model for the difference between TnH and Tn5 enrichment (scGET-seq, NIH-3T3), region chrUn JH584304:0-114452, cell group 10 (G2/M) was -0.073; the score: coefficient of the linear model for the difference between TnH and Tn5 enrichment (scGET-seq, NIH-3T3), region chrUn JH584304:0-114452, cell group 11 (G1/S) was -0.457; the score: coefficient of the linear model for the difference between TnH and Tn5 enrichment (scGET-seq, NIH-3T3), region chrUn JH584304:0-114452, cell group 12 (G1/S) was determined as 0.163. This substance also returned a score: coefficient of the linear model for the difference between TnH and Tn5 enrichment (scGET-seq, NIH-3T3), region chrUn JH584304:0-114452, cell group 13 (G2/M) of -0.528; a score: coefficient of the linear model for the difference between TnH and Tn5 enrichment (scGET-seq, NIH-3T3), region chrUn JH584304:0-114452, cell group 14 (G2/M) of -0.28; a score: coefficient of the linear model for the difference between TnH and Tn5 enrichment (scGET-seq, NIH-3T3), region chrUn JH584304:0-114452, cell group 15 (G1/S) of -0.47; a score: coefficient of the linear model for the difference between TnH and Tn5 enrichment (scGET-seq, NIH-3T3), region chrUn JH584304:0-114452, cell group 16 (G1/S) of 0.576. For the same substance, the score: coefficient of the linear model for the difference between TnH and Tn5 enrichment (scGET-seq, NIH-3T3), region chrUn JH584304:0-114452, cell group 17 (G2/M) is 0.468; the score: coefficient of the linear model for the difference between TnH and Tn5 enrichment (scGET-seq, NIH-3T3), region chrUn JH584304:0-114452, cell group 18 (G1/S) is -0.089; the score: coefficient of the linear model for the difference between TnH and Tn5 enrichment (scGET-seq, NIH-3T3), region chrUn JH584304:0-114452, cell group 19 (G1/S) is -0.129; the score: coefficient of the linear model for the difference between TnH and Tn5 enrichment (scGET-seq, NIH-3T3), region chrUn JH584304:0-114452, cell group 20 (G2/M) is -0.011. The score: coefficient of the linear model for the difference between TnH and Tn5 enrichment (scGET-seq, NIH-3T3), region chrUn JH584304:0-114452, cell group 21 (G2/M) is 0.138.
